Source: PMC5454105

Key:
[1] = target: WipA411 (WipA 33-411) (Legionella pneumophila) (UniProt Q5ZS02); test: SEC-MALS
[2] = target: WipA (IcmW-interacting protein A; lpg2718), full-length protein (Legionella pneumophila) (UniProt Q5ZS02); test: SEC-MALS

Substance	stoichiometry N [1]	stoichiometry N [2]
WipA411 (WipA 33-411) (from UniProt Q5ZS02 33-411) (domain or fragment)	2	–
WipA (IcmW-interacting protein A; lpg2718), full-length protein (from UniProt Q5ZS02 1-520) (enzyme)	–	2
